How the values were obtained:
[1] = target: hPCSK9(P70A) (human, UniProt Q8NBP7 31-692); test: SPR, mAb captured, 25C;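 further: antibodies held on a sensor chip bearing chemically coupled F(ab′)2 anti-human IgG as the capture surface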
Excerpt: (§1) Each selected antibody was captured on a F(ab′)2 anti-hIgG surface created through direct chemical coupling to a BIACORE™ chip to form a captured antibody surface.

[2] = target: hPCSK9(P70A, S147F) (human, UniProt Q8NBP7 31-692); test: SPR, mAb captured, 25C;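 further: antibodies held on a sensor chip bearing chemically coupled F(ab′)2 anti-human IgG as the capture surface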
Excerpt: as §1

[3] = target: T1, Human PCSK9-myc-myc-his (human, UniProt Q8NBP7 31-692); test: SPR, mAb captured, 25C;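 further: antibodies held on a sensor chip bearing chemically coupled F(ab′)2 anti-human IgG as the capture surface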
T1 construct: also called hPCSK9-mmh; hPCSK9
Excerpt: as §1

[4] = target: T2, hPCSK9(D374Y)-mmh (human, UniProt Q8NBP7 31-692); test: SPR, mAb captured, 25C;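 further: antibodies held on a sensor chip bearing chemically coupled F(ab′)2 anti-human IgG as the capture surface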
T2 construct: also called hPCSK(D374Y)-mmh
Excerpt: as §1

[5] = target: T3, hPCSK9(S127R) (human, UniProt Q8NBP7 31-692); test: SPR, mAb captured, 25C
T3 construct: mmh-tagged variant hPCSK9
Excerpt: as §1

[6] = target: T4, hPCSK9(D129G) (human, UniProt Q8NBP7 31-692); test: SPR, mAb captured, 25C
T4 construct: mmh-tagged variant hPCSK9
Excerpt: as §1

[7] = target: T5, hPCSK9(S147F) (human, UniProt Q8NBP7 31-692); test: SPR, mAb captured, 25C
T5 construct: mmh-tagged variant hPCSK9
Excerpt: as §1

[8] = target: T6, hPCSK9(S153R) (human, UniProt Q8NBP7 31-692); test: SPR, mAb captured, 25C
T6 construct: mmh-tagged variant hPCSK9
Excerpt: as §1

[9] = target: T7, hPCSK9(E159R) (human, UniProt Q8NBP7 31-692); test: SPR, mAb captured, 25C
T7 construct: mmh-tagged variant hPCSK9
Excerpt: as §1

[10] = target: T8, hPCSK9(T162R) (human, UniProt Q8NBP7 31-692); test: SPR, mAb captured, 25C
T8 construct: mmh-tagged variant hPCSK9
Excerpt: as §1

[11] = target: T9, hPCSK9(D192R) (human, UniProt Q8NBP7 31-692); test: SPR, mAb captured, 25C
T9 construct: mmh-tagged variant hPCSK9
Excerpt: as §1

[12] = target: T10, hPCSK9(R194E) (human, UniProt Q8NBP7 31-692); test: SPR, mAb captured, 25C
T10 construct: mmh-tagged variant hPCSK9
Excerpt: as §1

[13] = target: T11, hPCSK9(E197R) (human, UniProt Q8NBP7 31-692); test: SPR, mAb captured, 25C
T11 construct: mmh-tagged variant hPCSK9
Excerpt: as §1

[14] = target: T12, hPCSK9(R215H) (human, UniProt Q8NBP7 31-692); test: SPR, mAb captured, 25C
T12 construct: mmh-tagged variant hPCSK9
Excerpt: as §1

[15] = target: T13, hPCSK9(R215E) (human, UniProt Q8NBP7 31-692); test: SPR, mAb captured, 25C
T13 construct: mmh-tagged variant hPCSK9
Excerpt: as §1

[16] = target: T14, hPCSK9(R237E) (human, UniProt Q8NBP7 31-692); test: SPR, mAb captured, 25C
T14 construct: mmh-tagged variant hPCSK9
Excerpt: as §1

[17] = target: T15, hPCSK9(D238R) (human, UniProt Q8NBP7 31-692); test: SPR, mAb captured, 25C
T15 construct: mmh-tagged variant hPCSK9
Excerpt: as §1

[18] = target: T16, hPCSK9(A341R) (human, UniProt Q8NBP7 31-692); test: SPR, mAb captured, 25C
T16 construct: mmh-tagged variant hPCSK9
Excerpt: as §1

[19] = target: T17, hPCSK9(R357H) (human, UniProt Q8NBP7 31-692); test: SPR, mAb captured, 25C
T17 construct: mmh-tagged variant hPCSK9
Excerpt: as §1

[20] = target: T18, hPCSK9(E366K) (human, UniProt Q8NBP7 31-692); test: SPR, mAb captured, 25C
T18 construct: mmh-tagged variant hPCSK9
Excerpt: as §1

[21] = target: T19, hPCSK9(E366K, V380M) (human, UniProt Q8NBP7 31-692); test: SPR, mAb captured, 25C
T19 construct: mmh-tagged variant hPCSK9
Excerpt: as §1

[22] = target: T20, human PCSK1, myc-myc-his tagged (human, UniProt P29120 111-753, limits assumed); test: SPR, mAb captured on anti-hFc, 25C
T20 construct: also called hPCSK1-mmh; hPCSK1
T20 sequence: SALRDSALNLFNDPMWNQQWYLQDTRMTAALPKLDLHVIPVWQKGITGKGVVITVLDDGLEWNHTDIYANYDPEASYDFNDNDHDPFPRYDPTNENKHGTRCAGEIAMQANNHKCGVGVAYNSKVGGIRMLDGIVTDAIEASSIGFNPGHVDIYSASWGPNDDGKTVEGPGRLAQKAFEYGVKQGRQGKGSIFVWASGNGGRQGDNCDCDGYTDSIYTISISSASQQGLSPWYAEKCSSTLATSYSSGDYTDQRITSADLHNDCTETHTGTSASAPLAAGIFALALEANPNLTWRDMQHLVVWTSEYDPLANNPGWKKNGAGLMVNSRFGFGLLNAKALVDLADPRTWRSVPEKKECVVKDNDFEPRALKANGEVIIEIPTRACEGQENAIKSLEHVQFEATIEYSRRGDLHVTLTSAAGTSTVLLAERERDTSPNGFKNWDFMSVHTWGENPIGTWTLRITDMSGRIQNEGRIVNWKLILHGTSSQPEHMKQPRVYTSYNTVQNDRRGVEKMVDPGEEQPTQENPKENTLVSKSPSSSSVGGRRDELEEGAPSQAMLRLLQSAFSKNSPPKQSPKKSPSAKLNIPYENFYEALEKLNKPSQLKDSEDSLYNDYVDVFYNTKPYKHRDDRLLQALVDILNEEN

B1: H1M300N (antibody, V domains shown)
VH: EMQLVESGGGLVQPGGSLRLSCAASGFTFSSHWMKWVRQAPGKGLEWVANINQDGSEKYYVDSVKGRFTISRDNAKNSLFLQMNSLRAEDTAVYYCARDIVLMVYDMDYYYYGMDVWGQGTTVTVSS
VL: not shown
notes: Fully human version made in CHO cells
Kd [1]: 1.68 nM | T1/2 [1]: 80 min | Kd [2]: 7.87 nM | T1/2 [2]: 24 min | Kd [3]: 0.69 nM | T1/2 [3]: 120 min | Kd [4]: 0.66 nM | T1/2 [4]: 83 min | Kd [5]: 1.87 nM | T1/2 [5]: 110 min | Kd [6]: 1.4 nM | T1/2 [6]: 88 min | Kd [7]: 9.07 nM | T1/2 [7]: 24 min | Kd [8]: 0.56 nM | T1/2 [8]: 141 min | Kd [9]: 0.82 nM | T1/2 [9]: 94 min | Kd [10]: 0.58 nM | T1/2 [10]: 140 min | Kd [11]: 0.75 nM | T1/2 [11]: 119 min | Kd [12]: 0.65 nM | T1/2 [12]: 129 min | Kd [13]: 0.67 nM | T1/2 [13]: 115 min | Kd [14]: 1.03 nM | T1/2 [14]: 98 min | Kd [15]: 1.81 nM | Kd [16]: 1.03 nM | T1/2 [16]: 109 min | Kd [17]: 0.78 nM | T1/2 [17]: 123 min | Kd [18]: 0.34 nM | T1/2 [18]: 190 min | Kd [19]: 6.53 nM | T1/2 [19]: 66 min | Kd [20]: 36 nM | T1/2 [20]: 2 min | Kd [21]: 78.3 nM | T1/2 [21]: 1 min | binding result [22]: no binding (tested: 100 nM)

B2: H1H316P (antibody, V domains shown)
VH: EVQLVESGGGLVQPGGSLRLSCAASGFTFNNYAMNWVRQAPGKGLDWVSTISGSGGTTNYADSVKGRFIISRDSSKHTLYLQMNSLRAEDTAVYYCAKDSNWGNFDLWGRGTLVTVSS
VL: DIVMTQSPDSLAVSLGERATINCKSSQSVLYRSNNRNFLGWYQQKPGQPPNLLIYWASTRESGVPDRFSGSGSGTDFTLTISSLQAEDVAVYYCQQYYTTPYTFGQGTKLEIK
notes: Fully human mAb made in CHO cells; also called mAb316P
Kd [1]: 1.42 nM | T1/2 [1]: 32 min | Kd [2]: 1.18 nM | T1/2 [2]: 34 min | Kd [3]: 1 nM | T1/2 [3]: 37 min | Kd [4]: 2.04 nM | T1/2 [4]: 15 min | Kd [5]: 2.4 nM | T1/2 [5]: 36 min | Kd [6]: 1.27 nM | T1/2 [6]: 36 min | Kd [7]: 1.29 nM | T1/2 [7]: 32 min | Kd [8]: 5.64 nM | T1/2 [8]: 4 min | Kd [9]: 6.96 nM | T1/2 [9]: 5 min | Kd [10]: 0.98 nM | T1/2 [10]: 43 min | Kd [11]: 1.35 nM | T1/2 [11]: 28 min | Kd [12]: 0.38 nM | T1/2 [12]: 71 min | Kd [13]: 1.42 nM | T1/2 [13]: 27 min | Kd [14]: 0.86 nM | T1/2 [14]: 41 min | Kd [15]: 0.9 nM | T1/2 [15]: 43 min | Kd [16]: 2.48 nM | T1/2 [16]: 15 min | Kd [17]: 410 nM | T1/2 [17]: 1 min | Kd [18]: 1.54 nM | T1/2 [18]: 21 min | Kd [19]: 6.26 nM | T1/2 [19]: 30 min | Kd [20]: 2.92 nM | T1/2 [20]: 13 min | Kd [21]: 3.33 nM | T1/2 [21]: 12 min

Source: patent US20130064834A1 (published 2013)
